Measured values reported in patent US6627617.
pKd: −log10 of the molar value.

What was measured:
[1] = tested on: D412A-68 D412A (Adeno-associated virus 2); experiment: EMSA; conditions: apparent Kd, same as wt; 40 mM KCl, 10 mM HEPES pH 7.5, poly dIdC, 25 C
[2] = tested on: Rep68H6 (wt Rep68) (Adeno-associated virus 2); experiment: EMSA; conditions: apparent Kd; 40 mM KCl, 10 mM HEPES pH 7.5, poly dIdC, 25 C

“AAV terminal repeat hairpin with double-stranded trs (32P-TR)” was tested. Which pKd [1] did it give?
Its pKd is 8.52.

What about the pKd [2] of the same substance?
Its pKd is 8.52.
